Experimental data taken from PMC4863741 (Genes & Development, 2016).
One block for each binder: values may come before it.

Legend:
[1] = target: T1, GST-His-Sfmbt-SAM_(1137-1220) (Drosophila, UniProt Q9VK33 1137-1220); assay: pull-down
T1 sequence (looked up): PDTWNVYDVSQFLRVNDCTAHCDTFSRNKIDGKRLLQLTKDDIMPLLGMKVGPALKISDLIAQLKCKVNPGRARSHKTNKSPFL

Sfmbt-SAM_(1137-1220) = target: T2, Sfmbt-SAM_(1137-1220) (Drosophila, UniProt Q9VK33 1137-1220); assay: SEC
T2 sequence (looked up): T1 sequence (looked up)

binding result [1]: binds
B1: His-Scm-SAM_(803-877)^L855E/L859E (domain or fragment, Drosophila, UniProt Q9VHA0 803-877, looked up)
chain: PIDWTIEEVIQYIESNDNSLAVHGDLFRKHEIDGKALLLLNSEMMMKYMGLKEGPAEKICNLVNKVNGRRNNLAL

binding result (Sfmbt-SAM_(1137-1220)): binds
B2: Scm-SAM_(803-877)^L855E/L859E (coexpressed with Sfmbt-SAM) (domain or fragment, Drosophila, UniProt Q9VHA0 803-877, looked up)
chain: B1 chain
